Results published in patent publication US6420345 (CELL GENESYS, dated 2002).

Legend:
CDK4/cyclin D1 complex [1] = molecular target: T1, CDK4/cyclin D1 complex (UniProt P11802 1-303; P24385 1-295); test: cell-based or functional assay
CDK2/cyclin E complex = CDK2/cyclin E complex (UniProt P24941 1-298; P24864 16-410); test: cell-based or functional assay
CDK2/cyclin A complex = CDK2/cyclin A complex (UniProt P24941 1-298; P20248 1-432); test: cell-based or functional assay
CDC2/cyclin B complex = CDC2/cyclin B complex (UniProt P06493 1-297; P14635 1-433); test: cell-based or functional assay
Chain of CDC2/cyclin B complex (P06493 whole entry, chain 1 of 2): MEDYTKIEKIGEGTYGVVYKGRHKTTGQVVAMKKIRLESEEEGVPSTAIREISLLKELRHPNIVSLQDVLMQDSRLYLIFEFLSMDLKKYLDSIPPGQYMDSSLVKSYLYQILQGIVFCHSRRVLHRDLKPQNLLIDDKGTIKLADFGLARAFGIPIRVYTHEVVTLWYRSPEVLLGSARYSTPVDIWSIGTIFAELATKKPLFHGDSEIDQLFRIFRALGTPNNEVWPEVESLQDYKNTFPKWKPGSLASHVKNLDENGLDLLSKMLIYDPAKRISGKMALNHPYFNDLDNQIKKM
Chain of CDC2/cyclin B complex (P14635 whole entry, chain 2 of 2): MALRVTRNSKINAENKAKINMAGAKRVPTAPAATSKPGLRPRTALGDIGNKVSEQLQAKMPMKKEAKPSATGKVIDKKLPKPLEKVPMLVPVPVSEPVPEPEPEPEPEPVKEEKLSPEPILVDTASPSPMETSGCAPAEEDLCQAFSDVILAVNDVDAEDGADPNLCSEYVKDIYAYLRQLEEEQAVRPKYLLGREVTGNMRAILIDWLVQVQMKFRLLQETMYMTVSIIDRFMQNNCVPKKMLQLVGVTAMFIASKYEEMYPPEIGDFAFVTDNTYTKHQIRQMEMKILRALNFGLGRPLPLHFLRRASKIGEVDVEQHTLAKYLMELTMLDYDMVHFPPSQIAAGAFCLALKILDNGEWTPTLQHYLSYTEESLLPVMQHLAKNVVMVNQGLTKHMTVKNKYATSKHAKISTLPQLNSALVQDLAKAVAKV

CDK4/cyclin D1 complex [2] = molecular target: T1, CDK4/cyclin D1 complex; test: in vitro kinase inhibition assay (32P incorporation into GST-Rb)
Method: Partial purification of CDK4/cyclin D1 was achieved by a 20–40% ammonium sulfate preparation of the cell lysate and was used in the assays. […] These assays were carried out in 96 well plates (Nunc, Naperville, Ill.) and monitored by γ-^32P-ATP incorporation.
The concentrations of GST-Rb and histone H1 were 4.4 mM and 19 mM, respectively, and the concentration of ATP was 50–60 mM. The reaction mixtures contained 50 mM Tris-Cl pH 7.5, 10 mM MgCl_2, and 1 mM DTT in a total volume of 50 or 100 µl. After incubation at 30° C. for 10–20 minutes, the reaction was terminated by the addition of a stop solution containing EDTA. The phosphorylated substrates were captured either by GST-Sepharose or TCA precipitation and then monitored for radioactivity (Microplate Scintillation Counter, Packard, Meriden, Conn.).

T1 sequence (P11802 whole entry, chain 1 of 2): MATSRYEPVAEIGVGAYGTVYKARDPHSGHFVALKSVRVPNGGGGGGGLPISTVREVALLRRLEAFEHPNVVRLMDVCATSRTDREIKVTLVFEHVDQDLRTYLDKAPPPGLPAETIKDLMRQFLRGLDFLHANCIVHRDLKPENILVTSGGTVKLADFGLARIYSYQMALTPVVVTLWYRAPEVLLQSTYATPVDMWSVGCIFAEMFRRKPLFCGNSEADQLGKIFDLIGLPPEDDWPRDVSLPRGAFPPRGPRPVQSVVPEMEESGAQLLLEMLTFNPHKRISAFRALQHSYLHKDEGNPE
T1 sequence (P24385 whole entry, chain 2 of 2): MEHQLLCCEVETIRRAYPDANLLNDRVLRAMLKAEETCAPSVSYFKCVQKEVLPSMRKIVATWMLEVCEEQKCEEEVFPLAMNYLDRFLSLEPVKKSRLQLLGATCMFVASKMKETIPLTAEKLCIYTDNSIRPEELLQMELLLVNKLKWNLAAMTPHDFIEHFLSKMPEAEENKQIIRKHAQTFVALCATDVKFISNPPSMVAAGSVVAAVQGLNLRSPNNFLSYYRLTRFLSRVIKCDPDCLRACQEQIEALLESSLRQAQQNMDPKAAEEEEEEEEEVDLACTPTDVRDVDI

B1: human p16 (other)
chain: MEPAAGSSMEPSADWLATAAARGRVEEVRALLEAGALPNAPNSYGRRPIQVMMMGSARVAELLLLHGAEPNCADPATLTRPVHDAAREGFLDTLVVLHRAGARLDVRDAWGRLPVDLAEELGHRDVARYLRAAAGGTRGSNHARIDAAEGPSDIPD
notes: also called p16INK4
IC50, in vitro kinase assay (CDK4/cyclin D1 complex [1]): 250 nM
IC50, in vitro kinase assay (CDK2/cyclin E complex): > 500 nM
IC50, in vitro kinase assay (CDK2/cyclin A complex): > 500 nM
IC50, in vitro kinase assay (CDC2/cyclin B complex): > 500 nM
Ki (CDK4/cyclin D1 complex [2]): 75 nM
